Common to all, as to type: cell-based
Assay [1] relates to primary neonatal cardiomyocytes. Kind of assay: Morphometric analysis of stimulated primary neonatal cardiomyocytes (cell area, length:width ratio). As to conditions: 24 hours stimulation, PE 100 μM; for cell areas increases: versus serum-free control. As for the experimental part: FIGS. 1A and 1B. Morphometric analysis of primary cardiomyocytes stimulated with human Cardiotrophin-1 (hCT1) and/or the hypertrophy agonist Phenylephrine (PE).
Phenylephrine (PE) was used as a pathological adaptive compensation control as it is a known target of the stress-activated G-protein coupled alpha (α)-adrenergic pathway. Primary neonatal cardiomyocytes were stimulated for 24 hours with hCT1 (0.5 nM), PE (100 μM), the combination of hCT1 and PE, or control serum-free (SF) media followed by morphometric analysis (cell area and length:width ratio) (FIG. 1A). […] This CT-1 mediated growth is typical of the cardiomyocyte adaptations that occur during physiologic adaptive compensation with an L:W ratio that is divergent from PE induced growth.

Assay [2] has the same test system. Put plainly: In vitro reversion of cardiomyocyte hypertrophy after removal of stimulus. As to conditions: for myocyte hypertrophy (cell area) after removal of stimulus: 2 day treatment, then 4 days serum-free media (Day 6); for cardiomyocyte cell size after 2 days of stimulation compared to control: PE 100 μM or hCT1 0.5 nM, Day 2. Here is the method: FIGS. 2A and 2B. hCT1 induces physiologic adaptive compensation in vitro with reversion to a normal cardiomyocyte phenotype upon removal of hCT1 stimulation.
The morphological effects of CT-1 in an in vitro reversion setting (FIGS. 2A and 2B) were explored. Primary neonatal cardiomyocytes were stimulated for 2 days with phenylephrine (PE, 100 μM) or hCT1 (0.5 nM) followed by removal of the stimulus for 4 days: i.e. replenished with serum-free (SF) media. Cells were imaged at Day 0 and Day 2 of stimulation; and at Day 6 (4 days post-treatment). […] The population frequencies of L:W ratios of cardiomyocytes stimulated as above were examined (FIG. 2B). […] However, upon treatment with CT-1, only ˜20% of cardiomyocytes display a L:W ratio of 1.0 to 2.0 with the remaining cardiomyocytes showing an increased shift between 3.0 and 9.0 indicating eccentric growth. […] These observations indicate that although there is not complete penetrance of the eccentric growth (presumably due to the dosage and timing of CT-1 stimulation used), CT-1 causes an eccentric and reversible cardiomyocyte growth similar to what is seen during RV adaptive compensation, which is distinct from the concentric growth observed with PE which models pathological hypertrophic changes.

The next assay concerns Mef2. Put plainly: Mef2 luciferase reporter in primary neonatal cardiomyocytes. Conditions: hCT1 0.5 nM; for Mef2 activation after 24 hrs: PE 100 μM, PAC-1 25 μM. As for the experimental part: (§1) FIGS. 6A, 6B, and 6C. Stimulation with hCT1 causes sustained activation of NF-κB and Stat3 with limited activation of Mef2, as well as limited Nfat activation; the latter two indices are distinct expression patterns from pathologic hypertrophic stimulation. FIG. 6A Primary neonatal cardiomyocytes were transfected with luciferase reporter plasmids (NF-κB or Mef2), as indicators of hypertrophic activity. Luciferase activity was measured after treatments for 24 hrs with: hCT1 (0.5 nM), PE (100 μM), or procaspase 3 activating compound 1, PAC-1 (25 μM) (left). Treatments at early timepoints (30 min, 1 hr, and 3 hr) were also conducted for hCT1 (right). FIG. 6B Primary neonatal cardiomyocytes were transfected with a luciferase reporter plasmid for Stat3. Luciferase activity was measured after treatments for 24 hrs with: hCT1 (0.5 nM), PE (100 μM), or procaspase 3 activating compound 1, PAC-1 (25 μM) (left) and at earlier time points (right). FIG. 6C Primary neonatal cardiomyocytes were infected with a luciferase-based Nfat reporter Adenovirus (Nfat-AdV). Luciferase activity was measured after treatments for 24 hrs with: hCT1 (0.5 nM), PE (100 μM), or procaspase 3 activating compound 1, PAC-1 (25 μM) (left) and at earlier time points (right)
The signaling pathways that CT-1 engages in mediating physiologic adaptive compensatory remodeling were examined. The applicants predicted that cardiomyocyte adaptive remodeling mediated by CT-1 results (in part) from the induction of a specific transcriptional program, which is distinct from that of pathologic hypertrophic response. To address this hypothesis, the applicants tested the activity of two well-known transcription factor families that have been linked to both physiologic and pathologic cardiomyocyte growth, the Mef2 (Kolodziejczyk et al. 1999 Curr Biol. 9, 1203-1206; Kim et al. 2008, J Clin Invest. 118, 124-132.) and the NF-κB family (Gordon et al. 2011, Circ Res. 108, 1122-1132). Primary neonatal cardiomyocytes were transfected with luciferase reporter plasmids (NF-κB and Mef2) to be used as a read out of transcriptional activity. Luciferase activity was determined after treatments for 24 hrs with: hCT1 (0.5 nM), PE (100 μM), or procaspase 3 activating compound 1, PAC-1 (25 μM). […] This pattern of transcription factor activation was distinct from that induced by PE and by the caspase 3 specific activating compound PAC-1.
(In general: A reporter such as luciferase makes a cellular process visible.)

The next assay relates to STAT3. Kind of assay: STAT3 luciferase reporter in cardiomyocytes. Conditions: 30 minutes up to 24 hours; hCT1 0.5 nM, PE 100 μM, PAC-1 25 μM. As for the experimental part: as §1
Moreover, it is reasonable to assume that CT-1 may moderate the activity of additional transcription factors, which further contribute to the adaptive compensation phenotype. As such, Applicants decided to test the hypothesis that STAT3 (Signal transducer and activator of transcription 3) dependent transcriptional activity is a specific determinant for CT-1 induced physiologic adaptive compensation. STAT3 phosphorylation and transcriptional activation is a response that is common to the Interleukin-6 cytokine family (of which CT-1 is a member), which is mediated through binding and activation of a JAK/gp130 (Janus kinase/[…]) receptor complex.

A further assay deals with NFAT. Put plainly: NFAT luciferase reporter adenovirus (Nfat-AdV) in cardiomyocytes. Here is the method:
as §1
Applicants tested this supposition by infecting cardiomyocytes with an NFAT luciferase reporter linked to an Adenovirus (AdV) backbone (FIG. 6C). Cardiomyocytes were infected at a […] (MOI) of 20 with Nfat-AdV for 24 hours prior to stimulation with hCT1 (0.5 nM), PE (100 μM), or procaspase 3 activating compound 1, PAC-1 (25 μM). As an initial positive control, co-infection of NFAT-AdV with activated Calcineurin-AdV (a phosphatase and potent activator of NFAT signalling) caused a significant increase in NFAT activity (n=4; *, P<0.05). […] Although the exact mechanism of inhibition is unknown, Applicant has shown CT-1 engaging a PI3K signalling pathway and it would be reasonable to postulate that phosphorylation of NFAT by CT-1/PI3K signalling would limit NFAT activity.

As for `CNC[C@H](O)c1cccc(O)c1` [PE, Phenylephrine], the “L:W ratio, in words” value in assay [1] is “same or shortened L:W ratio”. In addition, the cell areas increases in assay [1] (hCT1 0.5 nM) is given as 171%. Also, in assay [2], the “myocyte hypertrophy (cell area) after removal of stimulus” value is recorded as “remained hypertrophied” and the “cardiomyocyte cell size after 2 days of stimulation compared to control” value is given as “increase in cardiomyocyte cell size”. The “Mef2 activation after 24 hrs” value in the assay with Mef2 is “significant activation of Mef2”. Further, in the assay with STAT3, the STAT3 activation entry was “only minimal (if any) activation”. In addition, in the assay with NFAT (as early as 3 hours, up to 24 hours, PE 100 μM, PAC-1 25 μM), the “NFAT activity compared to baseline levels” value is recorded as “significant increase of NFAT activity”.

B1: hCT1: Recombinant human CT1 protein; 201 amino acid sequence, GenBank Accession Nos AAD12173 and AAA85229 (human) (protein, UniProt Q16619 1-201, looked up)
Cardiotrophin-1: MSRREGSLEDPQTDSSVSLLPHLEAKIRQTHSLAHLLTKYAEQLLQEYVQLQGDPFGLPSFSPPRLPVAGLSAPAPSHAGLPVHERLRLDAAALAALPPLLDAVCRRQAELNPRAPRLLRRLEDAARQARALGAAVEALLAALGAANRGPRAEPPAATASAASATGVFPAKVLGLRVCGLYREWLSRTEGDLGQLLPGGSA
For B1, in assay [1] (hCT1 0.5 nM), the “L:W ratio (length to width ratio)” value was 172% and the cell areas increases is recorded as 162%. Besides, in assay [2], the “myocyte hypertrophy (cell area) after removal of stimulus” value is reported as “reversion of the myocyte hypertrophy” and the “cardiomyocyte cell size after 2 days of stimulation compared to control” value is listed as “increase in cardiomyocyte cell size”. For the same molecule, the “L:W ratio population frequency after removing stimulation” value in assay [2] (4 days after removal) is on record as “reversion of L:W ratio occurs”. Also, the “proportion of cardiomyocytes with L:W ratio of 1.0 to 2.0” value in assay [2] (upon treatment (2 days), control ~60%) was around 20%. In addition, in the assay on Mef2, the “Mef2 luciferase activity at 1 hr and 3 hr” value is given as “significant activation”; the “Mef2 activation after 24 hrs” value is recorded as “only NF-κB transcriptional activity was sustained”. Moreover, the STAT3 activation result with STAT3 is on record as “significant STAT3 activation”. Also, the “NFAT activity compared to baseline levels, CT-1 alone” value in the assay with NFAT (30 minutes, 1 hour, and 3 hours) was “slight, yet significant, decrease in NFAT activity”. For the same molecule, the “NFAT activity after CT-1 pre-treatment compared to PE or PAC-1 alone” value in the assay on NFAT (3 hours and 24 hours) is listed as “significantly decreased NFAT activity”.

Source of the values: patent US9962427B2, “Treatment of right ventricular dysfunction due to pressure overload” (OTTAWA HOSPITAL RESEARCH INSTITUTE, priority 2016, dated 2018).
